B1: mRNA-splicing (parent)
chain: AGUUGCUGCUGGGAGCUCCAGCACAGUGAAAUGGACAGAAGGGCAGAGCAA

Variants of: B1
Test: exon inclusion enrichment index; higher = more inclusion; WT1 exon 5 minigene, HEK293

Variant	exon inclusion enrichment index
AGUUAUUUUUGGGAGCUCCAGCACAGUGAAAUGGACAGAAGGGCAGAGCAA [G5A C6U G8U C9U]	0.0357
AGUUAUUUAUGGGAGCUCCAGCACAGUGAAAUGGACAGAAGGGCAGAGCAA [G5A C6U G8U C9A]	0.038
AGUUAUAUAUGGGAGCUCCAGCACAGUGAGUUGGACAGAAGGGCAGAGCAA [G5A C6U U7A G8U C9A A30G A31U]	0.0123
AGUUAUAUAUGGGAGCUCCAGCACAGUGAGGUGGACAGAAGGGCAGAGCAA [G5A C6U U7A G8U C9A A30G A31G]	0.00768
AGUUAUAUAUGGGAGCUCCAGCACAGUGAGCUGGACAGAAGGGCAGAGCAA [G5A C6U U7A G8U C9A A30G A31C]	0.00117
AGUUAUAUAUGGGAGCUCCAGCCAAGUGAAAUGGACAGAAGGGCAGAGCAA [G5A C6U U7A G8U C9A A23C C24A]	0.0996
AGUUAUAUAUGGGAGCUCCAGCCGAGUGAAAUGGACAGAAGGGCAGAGCAA [G5A C6U U7A G8U C9A A23C C24G]	0.241
AGUUAUAUAUGGGAGCUCCAGCCUAGUGAAAUGGACAGAAGGGCAGAGCAA [G5A C6U U7A G8U C9A A23C C24U]	0.00662
AGUUAUAUAUGGGAGCUCCAGCACUCUGAAAUGGACAGAAGGGCAGAGCAA [G5A C6U U7A G8U C9A A25U G26C]	0.157
AGUUAUAUAUGGGAGCUCCAGCACUUUGAAAUGGACAGAAGGGCAGAGCAA [G5A C6U U7A G8U C9A A25U G26U]	0.0803
AGUUAUAUAUGGGAGCUCCAGCACUAUGAAAUGGACAGAAGGGCAGAGCAA [G5A C6U U7A G8U C9A A25U G26A]	0.0732
AGUUAUAUAUGGGAGCUCCAGCUGAGUGAAAUGGACAGAAGGGCAGAGCAA [G5A C6U U7A G8U C9A A23U C24G]	0.128
AGUUAUAUAUGGGAGCUCCAGCUAAGUGAAAUGGACAGAAGGGCAGAGCAA [G5A C6U U7A G8U C9A A23U C24A]	0.0228
AGUUAUAUAUGGGAGCUCCAGCUUAGUGAAAUGGACAGAAGGGCAGAGCAA [G5A C6U U7A G8U C9A A23U C24U]	0.000794
AGUUAUAUAUGGGAGCUCCUACACAGUGAAAUGGACAGAAGGGCAGAGCAA [G5A C6U U7A G8U C9A A20U G21A]	0.0106
AGUUAUAUAUGGGAGCUCCUCCACAGUGAAAUGGACAGAAGGGCAGAGCAA [G5A C6U U7A G8U C9A A20U G21C]	0.0614
AGUUAUAUAUGGGAGCUCCUUCACAGUGAAAUGGACAGAAGGGCAGAGCAA [G5A C6U U7A G8U C9A A20U G21U]	0.0251
AGUUAUAUAUGGGAGCUCCCUCACAGUGAAAUGGACAGAAGGGCAGAGCAA [G5A C6U U7A G8U C9A A20C G21U]	0.0238
AGUUAUAUAUGGGAGCUCCCACACAGUGAAAUGGACAGAAGGGCAGAGCAA [G5A C6U U7A G8U C9A A20C G21A]	0.0479
AGUUAUAUAUGGGAGCUCCCCCACAGUGAAAUGGACAGAAGGGCAGAGCAA [G5A C6U U7A G8U C9A A20C G21C]	0.0139
AGUUAUACCUGGGAGCUCCAGCACAGUGAAAUGGACAGAAGGGCAGAGCAA [G5A C6U U7A G8C]	0.696
AGUUAUAUCUGGGAGCUCCAGCACAGUGAAAUGGACAGAAGGGCAGAGCAA [G5A C6U U7A G8U]	0.171
AGUUAUAACUGGGAGCUCCAGCACAGUGAAAUGGACAGAAGGGCAGAGCAA [G5A C6U U7A G8A]	0.217
AGUUAUAUAUGGGAGCUCCAGCACAGUGAGAUGGACAGAAGGGCAGAGCAA [G5A C6U U7A G8U C9A A30G]	0.0451
AGUUAUAUAUGGGAGCUCCAGCACAGUGAUAUGGACAGAAGGGCAGAGCAA [G5A C6U U7A G8U C9A A30U]	0.0249
AGUUAUAUAUGGGAGCUCCAGCACAGUGACAUGGACAGAAGGGCAGAGCAA [G5A C6U U7A G8U C9A A30C]	0.0649

Variant	exon inclusion enrichment index
AGUUAUUCAUGGGAGCUCCAGCACAGUGAAAUGGACAGAAGGGCAGAGCAA [G5A C6U G8C C9A]	0.357
AGUUAUAUAUGGGAGCUCCAGCACCUUGAAAUGGACAGAAGGGCAGAGCAA [G5A C6U U7A G8U C9A A25C G26U]	0.133
AGUUAUAUAUGGGAGCUCCAGCACCAUGAAAUGGACAGAAGGGCAGAGCAA [G5A C6U U7A G8U C9A A25C G26A]	0.223
AGUUAUAUAUGGGAGCUCCAGCACCCUGAAAUGGACAGAAGGGCAGAGCAA [G5A C6U U7A G8U C9A A25C G26C]	0.0828
AGUUAUAUAUGGGUGCUCCAGCACAGUGAAAUGGACAGAAGGGCAGAGCAA [G5A C6U U7A G8U C9A A14U]	0.00769
AGUUAUAUAUGGGGGCUCCAGCACAGUGAAAUGGACAGAAGGGCAGAGCAA [G5A C6U U7A G8U C9A A14G]	0.0395
AGUUAUAUAUGGGCGCUCCAGCACAGUGAAAUGGACAGAAGGGCAGAGCAA [G5A C6U U7A G8U C9A A14C]	0.0601
AGUUAUAUAUGGGAGCUCCAGCUCAGUGAAAUGGACAGAAGGGCAGAGCAA [G5A C6U U7A G8U C9A A23U]	0.0353
AGUUAUAUAUGGGAGCUCCAGCCCAGUGAAAUGGACAGAAGGGCAGAGCAA [G5A C6U U7A G8U C9A A23C]	0.0335
AGUUAUAUAUGGGAGCUCCAGCGCAGUGAAAUGGACAGAAGGGCAGAGCAA [G5A C6U U7A G8U C9A A23G]	0.157
AGUUAUAGCUGGGAGCUCCAGCACAGUGAAAUGGACAGAAGGGCAGAGCAA [G5A C6U U7A]	0.0138
AGUUAUACAUGGGAGCUCCAGCACAGUGAAAUGGACAGAAGGGCAGAGCAA [G5A C6U U7A G8C C9A]	0.286
AGUUAUACGUGGGAGCUCCAGCACAGUGAAAUGGACAGAAGGGCAGAGCAA [G5A C6U U7A G8C C9G]	0.736
AGUUAUACUUGGGAGCUCCAGCACAGUGAAAUGGACAGAAGGGCAGAGCAA [G5A C6U U7A G8C C9U]	0.218
AGUUAUUAAUGGGAGCUCCAGCACAGUGAAAUGGACAGAAGGGCAGAGCAA [G5A C6U G8A C9A]	0.0634
AGUUAUAUAUGGGAGCUCCAGCACUGUGAAAUGGACAGAAGGGCAGAGCAA [G5A C6U U7A G8U C9A A25U]	0.138
AGUUAUAUAUGGGAGCUCCAGCACCGUGAAAUGGACAGAAGGGCAGAGCAA [G5A C6U U7A G8U C9A A25C]	0.501
AGUUAUAUAUGGGAGCUCCAGCACGGUGAAAUGGACAGAAGGGCAGAGCAA [G5A C6U U7A G8U C9A A25G]	0.293
AGUUAUAUAUGGGUUCUCCAGCACAGUGAAAUGGACAGAAGGGCAGAGCAA [G5A C6U U7A G8U C9A A14U G15U]	0.00593
AGUUAUAUAUGGGUCCUCCAGCACAGUGAAAUGGACAGAAGGGCAGAGCAA [G5A C6U U7A G8U C9A A14U G15C]	0.00818
AGUUAUAUAUGGGUACUCCAGCACAGUGAAAUGGACAGAAGGGCAGAGCAA [G5A C6U U7A G8U C9A A14U G15A]	0.0025
AGUUAUAUAUGGGAGCUCCAGCACAGUGCUAUGGACAGAAGGGCAGAGCAA [G5A C6U U7A G8U C9A A29C A30U]	0.0308
AGUUAUAUAUGGGAGCUCCAGCACAGUGCCAUGGACAGAAGGGCAGAGCAA [G5A C6U U7A G8U C9A A29C A30C]	0.142
AGUUAUAUAUGGGAGCUCCAGCACAGUGCGAUGGACAGAAGGGCAGAGCAA [G5A C6U U7A G8U C9A A29C A30G]	0.219
AGUUAUAAAUGGGAGCUCCAGCACAGUGAAAUGGACAGAAGGGCAGAGCAA [G5A C6U U7A G8A C9A]	0.0655

Reference: the RNAGym collection of RNA variant scans (doi:10.1101/gr.219683.116)
